Test results reported in article PMC8265735 (Biopolymers, 2021).
Read-outs that look alike come from different tables or passages of the source.

Experiments:
SAXS [1] = target: the molecule itself; experiment: SAXS
SAXS [2] = target: the molecule itself; experiment: SAXS; remark: listed apart in the source

B1: Hemoglobin III (HbIII) from Lucina pectinata, oxy form (natural protein, Lucina pectinata (Phacoides pectinatus), UniProt P41262 1-153, looked up)
chain: MSSGLTGPQKAALKSSWSRFMDNAVTNGTNFYMDLFKAYPDTLTPFKSLFEDVSFNQMTDHPTMKAQALVFCDGMSSFVDNLDDHEVLVVLLQKMAKLHFNRGIRIKELRDGYGVLLRYLEDHCHVEGSTKNAWEDFIAYICRVQGDFMKERL
stoichiometry N (SAXS [1]): 4 | stoichiometry N (SAXS [2]): 2
